Experimental data taken from patent US20250206837A1 (ELIXIRON IMMUNOTHERAPEUTICS HONG KONG, published 2025).
Residue numbers refer to the chain shown, from its start. Numbers in names are those of the source. Where “and” joins values, the source holds several entries; their conditions need not be identical. Identical values can stand only once.

B1: 117 (antibody, V domains shown)
VH: EVQLVESGGGLVQPGGSLRLSCAASGFTISSFGIHWVRQAPGKGLEWVAWIAPYGGYTYYADSVKGRFTISADTSKNTAYLQMNSLRAEDTAVYYCARSFFGYFDYWGQGTLVTVSS
VL: DIQMTQSPSSLSASVGDRVTITCRASQDVSNWVAWYQQKPGKAPKLLISYATSLYSGVPSRFSGSGSGTDFTLTISSLQPEDFATYYCQQHSNAPLTFGQGTKVEIKR
notes: Full-length IgG, human kappa
B2: 117_30DE (antibody, V domains shown)
VH: B1 VH with S30D, Y57E
VL: B1 VL
notes: full-length IgG, human kappa
B3: 117_57EE (antibody, V domains shown)
VH: B1 VH with Y57E, T58E
VL: B1 VL
notes: full-length IgG, human kappa
B4: 117_30A (antibody, V domains shown)
VH: B1 VH with S30A
VL: B1 VL
notes: full-length IgG, human kappa
B5: 117_28A (antibody, V domains shown)
VH: B1 VH with T28A
VL: B1 VL
notes: full-length IgG, human kappa
B6: 117_31D (antibody, V domains shown)
VH: B1 VH with S31D
VL: B1 VL
notes: full-length IgG, human kappa
B7: 117_31A (antibody, V domains shown)
VH: B1 VH with S31A
VL: B1 VL
notes: full-length IgG, human kappa
B8: 117_30D (antibody, V domains shown)
VH: B1 VH with S30D
VL: B1 VL
notes: full-length IgG, human kappa
B9: 117_28D (antibody, V domains shown)
VH: B1 VH with T28D
VL: B1 VL
notes: full-length IgG, human kappa
B10: 117_32D (antibody, V domains shown)
VH: B1 VH with F32D
VL: B1 VL
notes: full-length IgG, human kappa
B11: 117_57DE (antibody, V domains shown)
VH: B1 VH with Y57D, T58E
VL: B1 VL
notes: full-length IgG, human kappa
B12: 117 (IgG1) (antibody)
heavy: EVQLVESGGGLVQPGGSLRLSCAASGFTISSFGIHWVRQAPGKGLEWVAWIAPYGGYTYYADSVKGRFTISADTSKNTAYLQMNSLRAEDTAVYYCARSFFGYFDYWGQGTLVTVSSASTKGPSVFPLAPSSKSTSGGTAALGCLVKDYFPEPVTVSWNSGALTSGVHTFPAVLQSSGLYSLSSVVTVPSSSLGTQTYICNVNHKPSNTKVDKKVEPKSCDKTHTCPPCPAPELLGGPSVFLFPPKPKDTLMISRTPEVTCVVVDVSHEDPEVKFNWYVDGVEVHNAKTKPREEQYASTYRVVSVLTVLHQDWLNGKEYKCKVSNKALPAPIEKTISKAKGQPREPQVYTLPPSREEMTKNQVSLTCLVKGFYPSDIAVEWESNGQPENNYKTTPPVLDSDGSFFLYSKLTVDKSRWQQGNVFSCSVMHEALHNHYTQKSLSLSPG
light: DIQMTQSPSSLSASVGDRVTITCRASQDVSNWVAWYQQKPGKAPKLLISYATSLYSGVPSRFSGSGSGTDFTLTISSLQPEDFATYYCQQHSNAPLTFGQGTKVEIKRTVAAPSVFIFPPSDEQLKSGTASVVCLLNNFYPREAKVQWKVDNALQSGNSQESVTEQDSKDSTYSLSSTLTLSKADYEKHKVYACEVTHQGLSSPVTKSFNRGEC
notes: Human IgG1-N297A, kappa
B13: 117 (IgG4) (antibody)
heavy: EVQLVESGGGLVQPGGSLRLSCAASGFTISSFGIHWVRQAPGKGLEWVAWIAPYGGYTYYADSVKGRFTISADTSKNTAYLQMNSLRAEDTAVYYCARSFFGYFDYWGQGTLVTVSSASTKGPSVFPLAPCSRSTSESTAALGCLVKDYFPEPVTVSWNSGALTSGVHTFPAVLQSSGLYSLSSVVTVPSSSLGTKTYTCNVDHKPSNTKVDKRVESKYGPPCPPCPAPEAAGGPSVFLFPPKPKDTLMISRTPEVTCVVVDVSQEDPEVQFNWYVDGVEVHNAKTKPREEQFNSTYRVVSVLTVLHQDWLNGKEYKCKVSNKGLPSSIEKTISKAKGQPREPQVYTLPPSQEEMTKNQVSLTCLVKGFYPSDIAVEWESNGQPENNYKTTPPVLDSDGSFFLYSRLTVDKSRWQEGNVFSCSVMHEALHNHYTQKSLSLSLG
light: B12 light
notes: Human IgG4-S228P/F234A/L235A, kappa
B14: 117_57D (IgG1) (antibody)
heavy: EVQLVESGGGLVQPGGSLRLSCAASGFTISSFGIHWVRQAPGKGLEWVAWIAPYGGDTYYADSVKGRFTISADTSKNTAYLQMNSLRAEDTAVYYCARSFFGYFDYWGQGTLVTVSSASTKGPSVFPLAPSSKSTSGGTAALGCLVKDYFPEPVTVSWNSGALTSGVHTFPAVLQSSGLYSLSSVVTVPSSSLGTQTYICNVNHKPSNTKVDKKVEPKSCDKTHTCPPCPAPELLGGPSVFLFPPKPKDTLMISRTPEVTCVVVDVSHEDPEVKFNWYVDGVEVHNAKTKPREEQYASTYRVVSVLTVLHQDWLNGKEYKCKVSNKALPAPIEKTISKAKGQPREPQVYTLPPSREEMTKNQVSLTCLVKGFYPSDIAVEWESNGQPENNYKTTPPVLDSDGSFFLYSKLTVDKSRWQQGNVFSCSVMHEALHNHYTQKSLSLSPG
light: B12 light
B15: 117_31A (IgG1) (antibody)
heavy: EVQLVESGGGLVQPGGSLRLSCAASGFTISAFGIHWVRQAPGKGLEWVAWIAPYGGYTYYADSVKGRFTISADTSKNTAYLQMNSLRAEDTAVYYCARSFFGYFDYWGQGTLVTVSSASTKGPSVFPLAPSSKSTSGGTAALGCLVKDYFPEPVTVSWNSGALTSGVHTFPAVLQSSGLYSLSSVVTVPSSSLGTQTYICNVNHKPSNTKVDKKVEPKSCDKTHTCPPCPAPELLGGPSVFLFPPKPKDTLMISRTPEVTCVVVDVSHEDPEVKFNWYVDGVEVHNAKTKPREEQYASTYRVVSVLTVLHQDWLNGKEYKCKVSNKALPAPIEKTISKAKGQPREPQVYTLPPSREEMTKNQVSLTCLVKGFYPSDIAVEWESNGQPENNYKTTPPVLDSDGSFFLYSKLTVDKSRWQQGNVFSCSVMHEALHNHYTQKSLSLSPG
light: B12 light
B16: 117_57EE (IgG1) (antibody, V domains shown)
VH: B1 VH with Y57E, T58E
VL: B1 VL
B17: 117_30AA (IgG4) (antibody, V domains shown)
VH: B1 VH with S30A, S31A
VL: B1 VL
notes: Human IgG4-S228P-FALA, kappa
B18: 117_57E (IgG1) (antibody)
heavy: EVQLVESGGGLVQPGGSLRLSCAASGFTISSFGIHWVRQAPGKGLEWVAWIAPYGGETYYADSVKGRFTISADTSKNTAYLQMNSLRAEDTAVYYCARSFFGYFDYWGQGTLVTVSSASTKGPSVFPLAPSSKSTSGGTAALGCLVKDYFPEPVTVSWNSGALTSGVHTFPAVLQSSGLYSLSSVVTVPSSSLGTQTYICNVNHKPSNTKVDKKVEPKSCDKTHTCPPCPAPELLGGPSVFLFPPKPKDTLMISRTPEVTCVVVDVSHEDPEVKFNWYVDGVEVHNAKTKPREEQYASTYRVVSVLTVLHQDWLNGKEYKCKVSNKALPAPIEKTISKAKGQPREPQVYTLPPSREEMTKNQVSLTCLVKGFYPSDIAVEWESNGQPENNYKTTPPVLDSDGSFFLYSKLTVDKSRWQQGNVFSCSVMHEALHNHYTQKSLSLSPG
light: B12 light
B19: 117_31A (IgG4) (antibody)
heavy: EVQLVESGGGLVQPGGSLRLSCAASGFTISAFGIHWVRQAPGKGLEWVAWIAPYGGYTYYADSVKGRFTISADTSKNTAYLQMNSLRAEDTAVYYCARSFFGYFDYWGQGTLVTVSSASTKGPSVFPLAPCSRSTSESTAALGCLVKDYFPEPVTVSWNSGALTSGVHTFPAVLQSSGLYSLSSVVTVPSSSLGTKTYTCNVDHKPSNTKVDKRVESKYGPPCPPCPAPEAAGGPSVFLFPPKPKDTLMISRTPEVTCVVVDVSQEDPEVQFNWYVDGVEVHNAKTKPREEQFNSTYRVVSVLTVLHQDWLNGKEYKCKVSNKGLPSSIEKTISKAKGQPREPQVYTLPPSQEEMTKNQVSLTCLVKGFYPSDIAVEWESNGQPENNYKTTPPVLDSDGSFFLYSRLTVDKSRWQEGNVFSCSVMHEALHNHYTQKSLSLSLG
light: B12 light
B20: 117_54E (IgG1) (antibody, V domains shown)
VH: B1 VH with Y54E
VL: B1 VL
B21: 117_DA57D (IgG4) (antibody, V domains shown)
VH: B1 VH with S30D, S31A, Y57D
VL: B1 VL
B22: 117_DA57E (IgG4) (antibody, V domains shown)
VH: B1 VH with S30D, S31A, Y57E
VL: B1 VL
notes: Human IgG4-S228P-FALA, kappa
B23: 117_30DE (IgG4) (antibody, V domains shown)
VH: B1 VH with S30D, Y57E
VL: B1 VL
notes: Human IgG4-S228P-FALA, kappa
B24: 117_57D (IgG4) (antibody)
heavy: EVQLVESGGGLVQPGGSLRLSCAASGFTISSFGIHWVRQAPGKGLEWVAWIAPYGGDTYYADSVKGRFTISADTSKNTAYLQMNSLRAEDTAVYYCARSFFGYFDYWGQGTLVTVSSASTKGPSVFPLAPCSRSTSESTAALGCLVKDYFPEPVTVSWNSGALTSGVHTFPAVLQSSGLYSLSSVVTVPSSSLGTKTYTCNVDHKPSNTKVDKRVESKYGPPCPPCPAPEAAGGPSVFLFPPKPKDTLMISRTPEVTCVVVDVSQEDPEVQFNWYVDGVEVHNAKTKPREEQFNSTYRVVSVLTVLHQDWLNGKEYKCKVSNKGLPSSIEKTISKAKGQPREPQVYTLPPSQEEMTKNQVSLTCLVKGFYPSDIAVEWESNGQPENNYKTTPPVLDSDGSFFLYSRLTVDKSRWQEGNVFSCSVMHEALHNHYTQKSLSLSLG
light: B12 light
notes: Human IgG4-S228P-FALA, kappa
B25: 117_30DA (IgG4) (antibody, V domains shown)
VH: B1 VH with S30D, S31A
VL: B1 VL
notes: Human IgG4-S228P-FALA, kappa
B26: 117_57E (IgG4) (antibody)
heavy: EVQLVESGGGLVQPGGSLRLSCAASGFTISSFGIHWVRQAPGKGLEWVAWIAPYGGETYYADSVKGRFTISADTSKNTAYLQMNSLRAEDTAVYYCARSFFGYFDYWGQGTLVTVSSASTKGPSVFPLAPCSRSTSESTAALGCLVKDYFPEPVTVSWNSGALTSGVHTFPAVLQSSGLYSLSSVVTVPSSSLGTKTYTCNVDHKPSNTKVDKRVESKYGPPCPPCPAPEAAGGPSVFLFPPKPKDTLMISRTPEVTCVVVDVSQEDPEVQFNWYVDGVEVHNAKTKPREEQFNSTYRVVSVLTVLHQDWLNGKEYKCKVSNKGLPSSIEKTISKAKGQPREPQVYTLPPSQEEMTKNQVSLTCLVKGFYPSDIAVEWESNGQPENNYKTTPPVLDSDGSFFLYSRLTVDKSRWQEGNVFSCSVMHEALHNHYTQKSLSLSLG
light: B12 light
notes: Human IgG4-S228P-FALA, kappa

target: T1, full-length human CD36-Flag overexpressed on stable F293 cells (human, UniProt P16671 2-472); experiment: cell-based or functional assay
T1 sequence (P16671 2-472): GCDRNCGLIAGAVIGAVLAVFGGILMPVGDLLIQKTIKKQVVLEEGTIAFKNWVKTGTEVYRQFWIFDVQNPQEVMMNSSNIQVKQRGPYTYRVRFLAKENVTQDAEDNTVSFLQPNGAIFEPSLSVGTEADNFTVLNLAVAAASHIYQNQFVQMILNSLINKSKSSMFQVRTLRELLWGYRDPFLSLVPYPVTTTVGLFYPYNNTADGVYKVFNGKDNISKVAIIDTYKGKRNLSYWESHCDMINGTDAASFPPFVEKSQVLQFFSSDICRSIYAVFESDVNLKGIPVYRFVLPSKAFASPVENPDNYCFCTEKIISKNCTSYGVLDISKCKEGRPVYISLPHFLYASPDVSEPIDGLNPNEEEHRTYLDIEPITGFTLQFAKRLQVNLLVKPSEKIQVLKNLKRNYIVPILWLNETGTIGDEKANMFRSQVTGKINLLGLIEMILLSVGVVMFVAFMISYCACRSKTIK

oxLDL uptake IC50 (nM), F293/hCD36 [nM] | Binder
0.702 | B1
0.299 | B2
0.348 | B3

target: T2, Recombinant His-tagged human CD36.ECD protein (Sino Biological) (human, UniProt P16671 30-439); experiment: ELISA, coated human CD36.ECD (FIG. 2B)
T2 construct: Bought protein; also called hCD36.ECD; hCD36; not shown: His tag
T2 sequence (P16671 30-439 limits assumed): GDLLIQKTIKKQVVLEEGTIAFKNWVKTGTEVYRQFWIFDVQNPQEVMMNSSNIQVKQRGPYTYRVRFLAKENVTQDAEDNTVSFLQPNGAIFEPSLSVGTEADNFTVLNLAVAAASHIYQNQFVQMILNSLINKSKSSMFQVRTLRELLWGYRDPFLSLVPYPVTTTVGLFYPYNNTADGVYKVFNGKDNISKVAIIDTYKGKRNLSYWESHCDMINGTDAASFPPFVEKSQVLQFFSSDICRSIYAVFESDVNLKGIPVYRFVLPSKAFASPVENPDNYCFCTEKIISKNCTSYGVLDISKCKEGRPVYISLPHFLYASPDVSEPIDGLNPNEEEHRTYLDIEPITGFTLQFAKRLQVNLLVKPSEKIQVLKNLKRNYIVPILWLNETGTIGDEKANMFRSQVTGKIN
Description: ELISA materials and methods: Recombinant His-tagged human CD36.ECD protein or His-tagged mouse CD36.ECD protein (both from Sino Biological) was immobilized on 96 well microtiter plate at a concentration of 1 μg/mL in Coating Solution (SeraCare) overnight at 4° C. The wells were washed with wash solution (0.05% Tween20 in PBS) and blocked with 1% BSA in PBS. Serial dilutions of anti-CD36 antibodies were added to wells. After incubation at 37° C. for 1 h, the wells were washed with wash solution. Peroxidase-conjugated Goat anti-human kappa Light chain antibody (Sigma) was applied to each well at 37° C. for 1 h incubation. After washing, the wells were developed with TMB substrate for 5-10 min at room temperature and then stopped with 1 N HCl. Thereafter absorbance was measured at 450 nm and 650 nm. EC50 values were calculated through GraphPad Prism7.
The competitor anti-CD36 antibody ONA, which is derived from clone “ONA-0-v1” as disclosed in WO2021176424A1 in hIgG4-S228P-FALA format.

EC50 [nM] | Binder
0.0964 | B4
0.129 | B5
0.0375 | B6
0.0991 | B7
0.141 | B8
0.0735 | B9
0.0276 | B10

target: T1, full-length human CD36-Flag …; experiment: flow cytometry, F293 cells overexpressing human CD36
Text: (§1) After washing with FACS buffer (2% FBS in PBS), the cells were stained with anti-human IgG-Alexa Fluor 647 and analyzed by Attune NxT Flow Cytometer (Thermo Scientific).

EC50 | Binder
0.18 µg/mL and 0.123 µg/mL | B1
0.107 µg/mL | B2
0.093 µg/mL | B3
0.129 µg/mL | B11

target: T3, mouse CD36-His overexpressed on stable F293 cells (mouse, UniProt Q08857 1-472); experiment: flow cytometry, F293 cells overexpressing mouse CD36
T3 construct: Gene segment from Sino Biological; also called F293/mCD36; mCD36; not shown: His tag
T3 sequence (Q08857 whole entry): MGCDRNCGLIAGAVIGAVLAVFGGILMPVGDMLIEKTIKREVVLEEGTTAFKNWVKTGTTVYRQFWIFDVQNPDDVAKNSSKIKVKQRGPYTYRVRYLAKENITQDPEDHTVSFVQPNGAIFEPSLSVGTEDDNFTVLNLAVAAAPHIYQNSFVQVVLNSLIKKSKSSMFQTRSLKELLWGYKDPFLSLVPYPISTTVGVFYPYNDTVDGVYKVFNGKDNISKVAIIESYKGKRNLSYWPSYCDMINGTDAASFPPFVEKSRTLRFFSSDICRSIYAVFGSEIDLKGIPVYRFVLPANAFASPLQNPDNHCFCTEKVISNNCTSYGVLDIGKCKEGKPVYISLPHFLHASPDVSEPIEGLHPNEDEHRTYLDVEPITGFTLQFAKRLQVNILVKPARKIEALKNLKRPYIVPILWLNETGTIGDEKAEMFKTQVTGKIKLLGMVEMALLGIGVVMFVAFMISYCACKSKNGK
Text: as §1

EC50 | Binder
0.46 µg/mL and 0.361 µg/mL | B1
0.342 µg/mL | B2
0.319 µg/mL | B3
0.447 µg/mL | B11

target: T4, rhesus CD36-His overexpressed on stable F293 cells (rhesus, UniProt P16671 2-472 (human entry)); experiment: flow cytometry, F293 cells overexpressing rhesus CD36
T4 construct: Gene segment from Sino Biological; also called F293/rhesusCD36; not shown: His tag
T4 sequence (P16671 other isoform, or with tags, fused parts or gaps): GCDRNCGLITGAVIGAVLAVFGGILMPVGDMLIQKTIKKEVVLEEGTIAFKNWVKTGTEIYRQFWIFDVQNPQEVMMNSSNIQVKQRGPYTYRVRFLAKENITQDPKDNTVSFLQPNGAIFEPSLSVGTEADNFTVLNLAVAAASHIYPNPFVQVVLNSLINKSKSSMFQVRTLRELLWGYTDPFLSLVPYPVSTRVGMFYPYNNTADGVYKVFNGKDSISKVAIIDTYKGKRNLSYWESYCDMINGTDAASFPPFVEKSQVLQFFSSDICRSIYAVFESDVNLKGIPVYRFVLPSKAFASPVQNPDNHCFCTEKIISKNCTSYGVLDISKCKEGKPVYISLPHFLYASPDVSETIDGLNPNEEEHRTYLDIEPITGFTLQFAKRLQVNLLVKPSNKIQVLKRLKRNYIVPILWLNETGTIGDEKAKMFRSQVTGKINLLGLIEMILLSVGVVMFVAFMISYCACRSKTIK
Text: as §1

EC50 | Binder
0.886 µg/mL and 0.582 µg/mL | B1
0.403 µg/mL | B2
0.407 µg/mL | B3
0.529 µg/mL | B11

target: T2, Recombinant His-tagged human CD36.ECD …; experiment: BLI (Octet), antibody on AHC sensor, His-tagged hCD36.ECD in solution, 1:1 fit
Description: BLI assay materials and method: Kinetic rate constants, ka and kd, for binding of the anti-CD36 antibodies to human CD36 were measured by Bio-Layer Interferometry (BLI) (ForteBio Octet RED96). […] Rate constants were calculated by curve fitting analyses (1:1 Langmuir model) of binding response with a 2.5-minute association and 5-minute dissociation interaction time.

Kd | koff | kon | Binder
4.79 nM and 6.72 nM | 0.00213 s⁻¹ and 0.00235 s⁻¹ | 445000 M⁻¹ s⁻¹ and 350000 M⁻¹ s⁻¹ | B12
6.49 nM | 0.0025 s⁻¹ | 386000 M⁻¹ s⁻¹ | B13
4.69 nM | 0.00175 s⁻¹ | 373000 M⁻¹ s⁻¹ | B14
4.05 nM | 0.00182 s⁻¹ | 449000 M⁻¹ s⁻¹ | B15
4.27 nM | 0.00155 s⁻¹ | 364000 M⁻¹ s⁻¹ | B16
5.74 nM | 0.00282 s⁻¹ | 491000 M⁻¹ s⁻¹ | B17
4.93 nM | 0.00182 s⁻¹ | 370000 M⁻¹ s⁻¹ | B18
4.32 nM | 0.00205 s⁻¹ | 475000 M⁻¹ s⁻¹ | B19
4.16 nM | 0.00407 s⁻¹ | 978000 M⁻¹ s⁻¹ | B20
2.64 nM | 0.000838 s⁻¹ | 317000 M⁻¹ s⁻¹ | B21
2.52 nM | 0.000803 s⁻¹ | 319000 M⁻¹ s⁻¹ | B22
3.09 nM | 0.000981 s⁻¹ | 317000 M⁻¹ s⁻¹ | B23
4.96 nM | 0.00167 s⁻¹ | 336000 M⁻¹ s⁻¹ | B24
3.91 nM | 0.00133 s⁻¹ | 339000 M⁻¹ s⁻¹ | B25
5.28 nM | 0.00171 s⁻¹ | 325000 M⁻¹ s⁻¹ | B26
